B1: EGFP-RASSF1 (wild type) [not stated] / mCherry-SARAH_(MST1) [not stated] (parent complex)
chain 1: MSGEPELIELRELAPAGRAGKGRTRLERANALRIARGTACNPTRQLVPGRGHRFQPAGPATHTWCDLCGDFIWGVVRKGLQCAHCKFTCHYRCRALVCLDCCGPRDLGWEPAVERDTNVDEPVEWETPDLSQAEIEQKIKEYNAQINSNLFMSLNKDGSYTGFIKVQLKLVRPVSVPSSKKPPSLQDARRGPGRGTSVRRRTSFYLPKDAVKHLHVLSRTRAREVIEALLRKFLVVDDPRKFALFERAERHGQVYLRKLLDDEQPLRLRLLAGPSDKALSFVLKENDSGEVNWDAFSMPELHNFLRILQREEEEHLRQILQKYSYCRQKIQEALHACPLG
chain 2: DYEFLKSWTVEDLQKRLLALDPMMEQEIEEIRQKYQSKRQPILDAIEAKKRRQQNF
B2: EGFP-RASSF5C (wild type) [not stated] / myc-MST1 K59R [not stated] (parent complex)
chain 1: MTVDSSMSSGYCSLDEELEDCFFTAKTTFFRNAQSKHLSKNVCKPVEETQRPPTLQEIKQKIDSYNTREKNCLGMKLSEDGTYTGFIKVHLKLRRPVTVPAGIRPQSIYDAIKEVNLAATTDKRTSFYLPLDAIKQLHISSTTTVSEVIQGLLKKFMVVDNPQKFALFKRIHKDGQVLFQKLSIADRPLYLRLLAGPDTEVLSFVLKENETGEVEWDAFSIPELQNFLTILEKEEQDKIQQVQKKYDKFRQKLEEALRESQGKPG
chain 2: METVQLRNPPRRQLKKLDEDSLTKQPEEVFDVLEKLGEGSYGSVYKAIHKETGQIVAIRQVPVESDLQEIIKEISIMQQCDSPHVVKYYGSYFKNTDLWIVMEYCGAGSVSDIIRLRNKTLTEDEIATILQSTLKGLEYLHFMRKIHRDIKAGNILLNTEGHAKLADFGVAGQLTDTMAKRNTVIGTPFWMAPEVIQEIGYNCVADIWSLGITAIEMAEGKPPYADIHPMRAIFMIPTNPPPTFRKPELWSDNFTDFVKQCLVKSPEQRATATQLLQHPFVRSAKGVSILRDLINEAMDVKLKRQESQQREVDQDDEENSEEDEMDSGTMVRAVGDEMGTVRVASTMTDGANTMIEHDDTLPSQLGTMVINAEDEEEEGTMKRRDETMQPAKPSFLEYFEQKEKENQINSFGKSVPGPLKNSSDWKIPQDGDYEFLKSWTVEDLQKRLLALDPMMEQEIEEIRQKYQSKRQPILDAIEAKKRRQQNF
B3: EGFP-RASSF1 (wild type) [not stated] / myc-MST1 K59R [not stated] (parent complex)
chain 1: B1 chain 1
chain 2: B2 chain 2
B4: EGFP-RASSF5C (wild type) [not stated] / mCherry-SARAH_(MST1) [not stated] (parent complex)
chain 1: B2 chain 1
chain 2: B1 chain 2

Variants of: B1
Test: FRET-FLIM in cells (EGFP donor lifetime, monoexponential fit, wide-field imaging); co-expressed with mCherry-SARAH(MST1); median of segmented cells; parent: 2.25e+03; read off a plot

Question: For chain 1 L308P, which response is on record?
Answer: ~2500 ps

Question: For chain 1 L305P, which response is on record?
Answer: ~2490 ps

Question: Which response does the source give for chain 1 L301P here?
Answer: ~2510 ps

Variants of: B2
Test: co-immunoprecipitation (IP anti-myc, IB anti-GFP), band quantification; n = 3; parent: 1.02; read off a plot

Question: For chain 1 L224P, which ratio to parent is on record?
Answer: ~0.98

Question: With chain 1 L228P as the variant, how does the ratio to parent read?
Answer: ~0.9

Question: Which ratio to parent does the source give for chain 1 L231P here?
Answer: ~0.85

Variants of: B3
Test: co-immunoprecipitation (IP anti-myc, IB anti-GFP), band quantification; n = 3; parent: 1.05; read off a plot

Question: With chain 1 L301P as the variant, how does the ratio to parent read?
Answer: ~0.32

Question: Which ratio to parent does the source give for chain 1 L308P here?
Answer: ~0.13

Question: Which ratio to parent does the source give for chain 1 L305P here?
Answer: ~0.07

Variants of: B4
Test: FRET-FLIM in cells (EGFP donor lifetime, monoexponential fit, wide-field imaging); co-expressed with mCherry-SARAH(MST1); median of segmented cells; parent: 2.27e+03; read off a plot

Question: For chain 1 L228P, which response is on record?
Answer: ~2490 ps

Question: How did the response turn out when chain 1 L224P was run?
Answer: ~2380 ps

Question: For chain 1 L231P, which response is on record?
Answer: ~2430 ps

— PMC4919659 (2016)
